From patent US8153134

Target: human MDL-1 (human) (UniProt Q9NY25)
Experiment: cell-based or functional assay

human MDL-1 (human), sequence (Q9NY25 whole entry): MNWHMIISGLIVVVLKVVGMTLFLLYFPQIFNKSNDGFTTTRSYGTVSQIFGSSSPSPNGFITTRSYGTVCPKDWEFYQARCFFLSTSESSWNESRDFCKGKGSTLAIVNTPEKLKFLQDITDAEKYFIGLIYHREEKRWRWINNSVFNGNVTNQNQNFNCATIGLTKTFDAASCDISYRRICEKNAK

secreted beta-hexosaminidase, OD (405-570), DT808 mouse mast cells, cross-link: 0.065 OD (405-570)
secreted beta-hexosaminidase, OD (405-570), DT808 mouse mast cells, no cross-link: 0.1 OD (405-570)
Substance: rat isotype control mAb (rIgG1) (antibody)
